Test [1] has as its target human μ opioid receptor-Renilla luciferase II (human) (UniProt P35372).
Test [2] has as its target HA-rat μ opioid receptor (rat) (UniProt P33535).
In test [3] the target is endogenous μ opioid receptor of rat locus coeruleus neurones (rat (endogenous in locus coeruleus neurones)) (UniProt P33535).
The target of test [4] is human μ opioid receptor-Renilla luciferase II (human) (UniProt P35372). This is another data set of the same source.
In test [5] the target is HA-rat μ opioid receptor (rat) (UniProt P33535). This is another data set of the same source.

Sequence of UniProt P35372 (P35372 whole entry): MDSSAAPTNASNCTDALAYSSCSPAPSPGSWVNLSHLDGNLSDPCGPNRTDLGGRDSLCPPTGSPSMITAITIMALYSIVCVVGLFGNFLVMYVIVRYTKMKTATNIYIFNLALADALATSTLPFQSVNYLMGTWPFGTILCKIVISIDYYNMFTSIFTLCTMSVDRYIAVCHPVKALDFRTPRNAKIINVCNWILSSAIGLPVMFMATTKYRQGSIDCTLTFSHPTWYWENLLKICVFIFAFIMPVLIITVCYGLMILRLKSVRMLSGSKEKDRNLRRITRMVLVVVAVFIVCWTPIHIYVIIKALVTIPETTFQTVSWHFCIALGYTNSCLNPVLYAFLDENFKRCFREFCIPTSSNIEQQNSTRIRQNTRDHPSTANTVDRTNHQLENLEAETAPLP

On to “DAMGO ([D-Ala^2, N-MePhe^4, Gly-ol]-enkephalin) (peptide)”, for which, in test [1], the KA (equilibrium dissociation constant) by Furchgott's method from β-arrestin 2 recruitment BRET curves with and without β-FNA, whole cells is 1580 nM. This substance showed a KA (equilibrium dissociation constant) by Furchgott's method from G protein activation BRET curves with and without β-FNA, whole cells in test [2] of 5.6 µM. Besides, in test [3], the opioid-evoked GIRK current in rat locus coeruleus neurones (whole-cell patch clamp), log EC50 (M) was -7.29 log EC50 (M). In addition, the β-arrestin 2 recruitment BRET (μ opioid receptor-RlucII / β-arrestin 2-GFP10) in HEK293T cells, log EC50 (M) in test [4] is -5.7 log EC50 (M). For the same substance, in test [5], the G protein activation BRET (Gαi1-RlucII / GFP10-Gγ2) in HEK293T cells, log EC50 (M) was -6.48 log EC50 (M) and the cell surface receptor loss (ELISA of HA-tagged receptor, 1 h agonist) in HEK293T cells, log EC50 (M) was -6.14 log EC50 (M).

The record behind these values is PMC10952505.
